Measured values from the NTF2 design screens of Basanta et al. (2020).

Assay: protease stability score; higher = more stable; yeast display proteolysis, trypsin and chymotrypsin;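 note: log10 excess protease needed over predicted unfolded state with 0 meaning unfolded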

Sequence | protease stability score
DEELLKEWETLVEDNNEQDLSKMADEDARVNVGDKHYHGRENVEKFITTLAQRIDRIDIKTVDNDGEKVRIDMIAKFNGHQLRVVLEMQAHNGRVKVINARATNEDQEKLWKDLVD | 0.798
DHEAEKRWTKLQEAIKYNNPQEAKHQMDPNARVRVGDKEFHGMDDFAKYQLDHQRKIEVDRKVKKVDVKNGSVKVVQDVENNNNGTPSRHVMDLRVEVHNGHIRNVRAETDK | -0.295
DEEEDAEKLLERREKVFRQGDPDQMQRMMDPNARIKVGDREVHGREEVDRTLLEQARKADHIRFELKDMRVQGDKVVLDVHVKFEVNGRHQSRQVQYVAQFHNGRYTFRSARER | 0.047
DDDATKVVKEFLSALKTNNPDRARELIDKDVRVRVGDKEIHGREQLITHIETDLKKIRIEIKHMHIDVTGEDIIIHQVFVDEHNGRPHTQTVVVFIEMNNGRVKNVRSETSS | 0.322
DEDEWRKIWTVFENNDPRKFKTMVDKHAHAEVGDTEFHGREQIQHYFERLIRRVDHIEYKSVNIHGDKMRAEVVLNVDGQNLRYVYEVTVHNGRIKMMRIRFTDEEVERQMKRIVK | 0.209
DTEQLKVFKEFVDAHRHNNPEELKKQMDKDVHFRVGNKQIHGREKAAHYWETIMHEIRVEWKSIVMKDSNGKAKAKFRFVENVNGKPQENTYDLEFSARNGRINSITMRFDEDQQRHHKK | 0.345
DEDATDNVRQWFEARNQNDENRLMQLVDPNAKIQVGDKFVHGKEDLEKQVKREKDQIHLHMKDMKFTDTGDTVKVRIDYRDEHNGRPKEDRMVAYATVHNGRIENLEVDSDR | -0.179
DESDLSRQAKELIDNWETGNPDKMRKLMDENVTADVGDKRWHGRDEVVKWFKTLVDSIDHIEVREFKVSGNSVTFTAEANVNGKKATFQVVIEVHNGKIKDVKVNPDDLKQLEK | 1.58
DEHKQIREFQKKQQKWWERGNWEELDKMFPPDARMSIGDTTVHGRESIRKTLKDLVDSADSVSVEFKHFKFHNGRAHVDAVLSVDVNGKKVDVKFNANLQVHNGTLFVDEVVRK | 0.118
DEKEIRKLLQKMAKMFEEGNNEELRKLGDDDLQVTYGDEEYKGPDDLVKVLETVKKLGAKVEYKEVHVEGDTVTVKVEAEMGGRKARYKVKYQADGNKVKRFQVEYSEDAQKAIKEG | 1.28
DEEVEHQFRTYERALRQGDEQELRDQVDKNAEIEYGDRKIHGMDRAARKIARRVRELRVEDNFVSLEVKENHVQKNVDVVIEVNGRPVRFRADMQVQVHNGKVKEIRVQVPEEVQKRVKE | 0.127
DESAAERFDEFMRNVDTNNEHKLKEYADPNAKVQYGDKVLHGMDQIIHDIRRYMEEMRVRVDFKRYDAQGNELSFVADYSAEYNGEPVNDNVTFHVEAHNGKLKDMKINFDPKKDQDRRG | 0.355
EEEAREAVKRVMKAHETNDPDKMMQNFDPNAKLTIGDTELHGREEARKHWEDNLKEIEIRIETWHVEDEGDKATLKVVYVREHNGQPTRERAVVYLRVKNGKVQTVSNQSRK | 0.292
DEEELSQVVRKVIEALRTGDPDLFQKLADPNAKASVGDKSVHGKEEISSLQKEFSDRVDEIKFTHVSFENGHATIHMELNHNGRHDKVVVKIDVENGKIKHVQIEKS | 0.741
DEDANRRLRRLIEQIHENDPDKIDEMFDPNARVDIGDHTVHGREQLRQTVKREAKEIRIRIERLDVRVKGDKATVEMHFVRKNNGEPRSNRVVVTARIRNGKIESMKQTEDG | 0.763
DESKKAKKFMEEYKRAIETGDEDTAKNLADKDARVKVGDTTYTGMDHIRERVVTEAKQVDHITFEVKEMQTRPGRLKVRMDVIFDHDGRKDRKEVVLVFKDNNGKVLLLSASYQ | -0.041
DDTKTARELVENLNEAFEKGDEDQFVSNLPPDARIEVGDRQVHGREQLKKWFDEMVERFDHMRIEVRHVEHHNGDVRVSARMQWQHNGREQSDSVEVVFVNDNGRLKMHVLRYG | 1.5
DEQDLKKVREFVQAQEEGDEDKLRELMDPNARVRVGDHRINGMDEIVKTDKKEVDDIKLSITDLKMHVKGDHMKVRIHQIVNHNGRPHTKTVDVVAHRHNGRLKSMERQDTK | -0.122
DQEEVEQAKKFVEAQKSGDPDQLNDLADPNVELEIGDQELHGREDLHDWANHQNKHMRMEVRDVKAQDKPNHVEVHIRFVINVNGKPRDTTVEVDFSAENGHIKKIKFQIDHHELRKLEK | -0.154
DEEQLDLNRRWMTALKTNNPDDAINLIDPNAKVHVGDKTLSGRENIKTYLKHLIHESRFRFRVQSMNAKNGQVDVSVKQTQSHNGQPSTNRIVVRMEVENGTITSNTIDSKS | -0.073
DEQATEVIERFLTALQRNDPHELKKQLDEDVRMNVGDKTLHGRDSFEKTWHEKLRTQRIELKDYRIEVQPGRVKAHVHYVVEHNGRPRTKRHTFSAEVHNGHVKHFHQQDEQ | -0.462
DEEKIDRLLHEVVKAYLSGHSEKLKKLLKEDGQLHALSQTYHGKEQVMKVAEEFKRYGVELQIQDQKTEGDTLKVKAQAHKGGTTWEFEVKVKADGGKADELTIKVSEEAHKMIQRG | -0.298
DERAADAIERLLKAMKDNDPSELSKQADENVHFDVGEKKYHGMETYARTVAKERHDAEQTYRLKDYRVDENHVSFNMRVVQTNNGKPVDVEAILRANVKGDKVKSMRIDEHK | -0.23
DEDARRKVEEFMDLMRNNNPEELAKLADPNATVHYGDKVVHGREQAMEWWKKFLTELRVDIKSVSIRVSGNKIDVEVDMIVQVNGRPVTLNWRFSFNFNNGKIEQIHVHISEEQQERIHS | 0.68
DDKDQHEEVEKFARNVVSGNSDELRKQMDKDVRANVGDKTLRGREEVADFWKHMRDRIDHAEIKEIRFHNGEARIVMQFVHNGRTKQINIVMEFHDGHVKRLRVEDG | 2.73

Sequence | protease stability score
DEDHLRKLKEYVKNYNKGDPDKLDEYLDPNVRINVGDHTVHGMDEHNKQAEERTRNMRIQLRRVDVKARNGQLKATINAEAEVNGRPATLHADITVKMHNGKVKNIHVRMPEDYKREREK | 0.008
DQDLHTRFKTWVENLHEGDEDNLKSLADPNAKIKVGNKEYHGMDEFKKDQKRRRDQMRIQIEIDSVTVQGNKATAEFEMTLDVNGKPVRMRFRVQFEVHNGTIQSWEAQVSPEQQEKLDR | 0.967
DEEAAKHVNRMLEKGDEKKIAQHVDKDARAHVGNQELHGREDIIRAVTRFRQQADHMRVDSYEVQGDRIEVTFEVVVNGHKMQLKATIRVDNGRIKHNKIQARSEEQTKQMQKLLD | -0.171
EEEKMKKIIKRMFDAVQKGNTEELRKYGKEDVKFEFIDDRNEGPQQYAERMKKMMKHGVQLEIKEVQLKDNTATMYTVVEYGNRRVTAKAEFEYDGGKLKEARVKISEEAKKVIKTG | 0.119
DEEAKDNFETAFKAEMTGDPQKYKKNVDPNAKVTIGDKTVRGREEVAKQLQHRRKESHVEFTDMKVKVQGDKVVVKLKAVDNENGRPDTAHYDIQFHASDGRITDLKVNKTK | -0.049
DEHANETVKRILRDIRHNNPHEIRKNMDPNAKVVIGDKTIHGREEAARQLKREMHEIRVEVKHIDMKVHDGRVNVNFDVVLDSNGNPQRQSYRMVVRVHNGTVHYLSKSDTR | -0.041
DEHDMAHKFFHDLVEAAKTGDRDKIKRLADPNVKIEYGDKRLHGHKDYANFIQKIVERVDSVNFQLQSVSVTGDKVRMIYTLDVVENGQKRTDRLQIEAQIHNGDIIAKRVVEG | 0.873
DERDADKVRQLYENEQHGDEHKVMQLVDKDVRFQYGDHEVQGREQQKKLVKERQDKARFELKSVDARDHNGRVRVDVRWVAEVNGRPHEDTIEVVVEIHNGKVKHVEFRVDPDHWTEVMQ | 0.152
DEDTNREQVKRFEEAQQENDPDKWMDNLDENARLDVGDTRVHGSKEIMKHFKRLNDKIDHWRVQSFEFHNGRMKLNAVARVNGKRLKMQFQANVHNGKFTELRMDPDAVRKITS | 0.413
EEEDLKQVRKFLDAERDNDEDRLRELVDPNARFKVGDKTYHGMEDYVREVVHRMRQMQFEVDSIDNTVEGDHVRMRIHRTYRHNGKPSTKVYVLKARLHNGKIKHMQQDDDK | 0.152
DQEKFERMAHKANRALEQNDEETFDELADENARMIYGDKRYTGRERVREAVQEIDKRVDHVQVDRVNVHGERAQINAVFHFNGKTQRDNVNMRFSNGKLQEMRFDPDVIRNLEE | -0.131
EEDLLEVMERLYQALRENDPKKAMENVDPNARFKVGNKEYRGREQQSKEDTKKRDKMRVDMRIESMEIHGETVHIDATVVNQVNGQPYRQKVIIRARLHNGQIQELEFQLDPSVQEKVRQ | 0.538
DERMDDTLRRLVERGDFHKIAENADPNVRMQVGNKVFHGREEVRRAAERWQNQVDHYQVDSVRVHNGHVSAHVQATVNGQRIRFTIKIDVQGDKVQRMEIEFTSEEQKKLQDEAVE | 1.41
DEQDEVKTLLDEIRKALETNDRERLRELVDKDAHFEYGDKKYQGSEHAARQMVEEQKNIDSQSVQLRDVQIHNGQANVDVVIEYTHNGRKRTFDAKFRFKVENGRVKLVENVQS | 0.895
DDDAQRRVKTYFNLLLTGNPENLKNQVDEDVRVEIGDKEIRGSDQVAHHARQLHTEMRIHARIDDMKVQGDHIRVEVRLYFERNGQPRTKNLRASVRWHNGKMKEFVVKNDD | 0.682
DEEHQKEVLEHMTTNDPQFLRDLADEDVRVNVGDKEVKGREEFRRVLEHELRRIDRIQVKRVHVEGEKFKIDRKVTFDGKTLDYEVNFTIHNGRLKQMRVQARSEDLEEKMKELHG | 0.36
DEEALNNLHEFFKHWNTGNPHELMKLADPNVRFQVGEKVIHGREEFMKDIKRIREELRQEIDVRDVKVQGEKLIVKATRSEERNGKPSSDTIHMTARVHNGRIKSVDIKSTS | 0.435
DEEANEMAKSYLEAKTRGDPRSAKELADKDAEFVVGDKTYQGMDENSDNMRRERDEQRTKVKILHLDDRPNHAVIKYRVEVQTNGQPRTKNYELNLQYSNGKIKYVRVEDRK | -0.027
DTEELQRLLTLVETNDFETLAKQADENARADVGDHKITGREDITRWAKQLSDRIDHVEVRSLDIQGDKAVAVLQFHVNGRTMVFRVHISAHNGKVKHFQVKVRDENARKQLKRVVD | 0.147
DDRLREVFEHIVELFKTGNPEELSRNVDPNARYQYGDKELHGRDHYRREVKDLIDTMRYEQEVDKVQKRGEKVRIEAEARHKENGRPNEFTFVIEFKAHNGKVKHEVQHESS | -0.15
EEHIKEVLDRVREAWRKNNPDDLKRNFDPNARFNIGNKRYHGMEHFVEDVARLLHEIHVEIHYHHITFDGNEARFSYDAVFNVDGRPIRDSMSRRVILHNGKIVDMKVDVDPKELDKKLK | -0.093
DDRDAKHFKEIMKHGNFEEMVRQADPNVTITIGDREVHGRHQAQKFVDTLNDRIDHYQVDEIDVKGEKITAEVAMVVNGVRVDFVIVMHFENGRIKSVRIEATNEHAHENFRRIHS | 0.561
DEKEEAEKFFEQYKHALHRGDPDQMANLADKDVRAEIGDKVVHGRDQLMTYVKTLKEHYDDISLKLKDVQVSGDKAQLHAVLTLNHNGKNDKIHIVIRMVRQGDELVMTSITYR | 0.935
DEEANKIAKKFQEALRKGDENRLKELVDPNVRMEYGDHSIHGREELEKDVRKKKRDMRVKITLDHMEDNGSEVTAKVRWTQEHNGTPDSTHFSARFDFTDGRLKHYDQNDSG | -0.009
DSRAVHLAKNFMSALKTGDHDRARDNLDKDARISIGDKVWHGMDEAVHDIKREKEEMRIEFRKVDAKDSNGKVRMDADVVFNHDGRPDKFRLDADIEVHNGRIHVLDVENSK | 0.264
